According to patent US20170355774A1 (Regeneron, published 2017):

T1: human GITR (amino acids M1-V241, NCBI Accession #NP_004186.1) expressed on cells (human, UniProt Q9Y5U5 26-241)
T1 sequence: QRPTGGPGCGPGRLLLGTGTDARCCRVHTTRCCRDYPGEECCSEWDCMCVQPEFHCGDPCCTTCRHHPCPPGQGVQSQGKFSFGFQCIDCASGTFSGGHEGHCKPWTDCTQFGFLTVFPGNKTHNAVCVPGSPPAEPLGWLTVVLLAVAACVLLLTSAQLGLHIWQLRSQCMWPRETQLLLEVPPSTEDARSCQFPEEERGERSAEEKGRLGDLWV

T2: mfGITR.mmh (Macaca fasicularis)
T2 construct: soluble monomeric construct; also called Macaca fasicularis (mf) GITR.mmh; cynomolgus GITR protein
T2 chain: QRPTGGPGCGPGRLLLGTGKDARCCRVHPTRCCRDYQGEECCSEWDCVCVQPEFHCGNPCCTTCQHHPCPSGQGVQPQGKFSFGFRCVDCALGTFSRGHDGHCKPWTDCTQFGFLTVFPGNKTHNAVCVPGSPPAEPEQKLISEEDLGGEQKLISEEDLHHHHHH

T3: hGITR.mFc (human)
T3 construct: soluble dimeric construct with mouse Fc; also called dimeric human GITR
T3 chain: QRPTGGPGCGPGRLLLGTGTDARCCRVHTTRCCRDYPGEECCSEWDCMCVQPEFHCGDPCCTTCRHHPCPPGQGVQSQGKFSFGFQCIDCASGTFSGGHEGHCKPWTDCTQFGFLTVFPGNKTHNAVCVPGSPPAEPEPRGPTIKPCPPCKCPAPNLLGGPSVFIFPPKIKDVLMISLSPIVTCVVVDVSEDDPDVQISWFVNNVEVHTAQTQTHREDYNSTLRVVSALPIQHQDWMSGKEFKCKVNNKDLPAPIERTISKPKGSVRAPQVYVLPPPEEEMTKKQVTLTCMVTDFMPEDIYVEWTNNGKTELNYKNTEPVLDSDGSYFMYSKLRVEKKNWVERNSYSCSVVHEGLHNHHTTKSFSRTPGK

T4: hGITR.mmh (human)
T4 construct: soluble monomeric construct; also called human (h) GITR.mmh; monomeric human GITR
T4 chain: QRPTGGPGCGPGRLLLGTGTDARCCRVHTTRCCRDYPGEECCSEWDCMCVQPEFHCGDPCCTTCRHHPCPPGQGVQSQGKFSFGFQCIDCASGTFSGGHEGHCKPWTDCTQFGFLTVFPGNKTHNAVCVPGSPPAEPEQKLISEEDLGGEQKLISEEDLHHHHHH


Experiments:
[1] = target: T1, human GITR (amino acids M1-V241, NCBI …); experiment: cell-based or functional assay
mfGITR.mmh = target: T2, mfGITR.mmh; experiment: SPR 37C, mAb capture
Method: (§1) (Table 3). […] GITR proteins were injected over the sensor surface at a flow rate of 30 μL/minute. All Biacore binding studies were performed in a buffer composed of 0.01M HEPES pH 7.4, 0.15M NaCl, 3 mM EDTA, 0.05% v/v Surfactant P20 (HBS-ET running buffer). Antibody-reagent association was monitored for 4 minutes while dissociation in HBS-ET running buffer (10 mM HEPES, 150 mM NaCl, 3 mM EDTA, 0.05% (v/v) Surfactant P20, pH 7.4) was monitored for 10 minutes. Kinetic association (kₐ) and dissociation (kd) rate constants were determined by fitting the real-time sensorgrams to a 1:1 binding model using Scrubber 2.0c curve fitting software. Binding dissociation equilibrium constants (KD) and dissociative half-lives (t ½) were calculated from the kinetic rate constants as: KD [M]=kd/kₐ; and t_{1/2}(min)=(ln 2/(60*kd). Results are summarized in Table 3.

hGITR.mFc = target: T3, hGITR.mFc; experiment: SPR 37C, mAb capture
Method: as §1

hGITR.mmh = target: T4, hGITR.mmh; experiment: SPR 37C, mAb capture
Method: as §1

[2] = target: T1, human GITR (amino acids M1-V241, NCBI …); experiment: ECL cell binding, hGITR/HEK293-D9
Method: Nonspecific binding sites were blocked with 2% BSA (w/v)+PBS for 1 h at room temperature (RT). Next, serial dilutions of anti-GITR antibodies, ranging from 1.7 pM to 100 nM, were added to cells for 1 h at RT. Plates were then washed to remove unbound antibodies (AquaMax2000 plate washer, MSD Analytical Technologies) and plate-bound antibodies were detected with a SULFO-TAG™ conjugated anti-human kappa light chain IgG antibody (Jackson Immunoresearch) for 1 h at RT.
Following washes, luminescent signals were recorded with a SECTOR Imager 6000 (MSD) instrument. Direct binding signals (relative light units, RLU) were analyzed as a function of the antibody concentration and data were fitted with a sigmoidal (four-parameter logistic) dose-response model using GraphPad Prism™ software. […] The signal detected with 100 nM antibody binding to the hGITR expressing cells versus parental cells was recorded as an indication of intensity and specificity of GITR binding.

| % Activation, NF-kB-Luc, non-anchored [1] | % Blocking, NF-kB-Luc, non-anchored [1] | EC50, hGITR activation, NF-kB-Luc, non-anchored [1] | IC50, blocking of hGITRL stimulation, NF-kB-Luc, non-anchored [1] | Kd (mfGITR.mmh) | koff (mfGITR.mmh) | kon (mfGITR.mmh) | t½ (mfGITR.mmh) | Kd (hGITR.mFc) | koff (hGITR.mFc) | kon (hGITR.mFc) | t½ (hGITR.mFc) | Kd (hGITR.mmh) | koff (hGITR.mmh) | kon (hGITR.mmh) | t½ (hGITR.mmh) | Average Signal (RLU) at 100 nM [2] | EC50 [2] | Binder |
| --- | --- | --- | --- | --- | --- | --- | --- | --- | --- | --- | --- | --- | --- | --- | --- | --- | --- | --- |
| 40% | 80% | 2.2 nM | 0.7 nM | 158 nM | 0.0189 s⁻¹ | 120000 M⁻¹ s⁻¹ | 0.6 min | 0.146 nM | 0.000135 s⁻¹ | 922000 M⁻¹ s⁻¹ | 85.6 min | 3.62 nM | 0.00147 s⁻¹ | 405000 M⁻¹ s⁻¹ | 7.9 min | 5740 RLU | 0.21 nM | H1H14524P (antibody, human IgG1, V domains shown, human IgG1 (H1H)) VH: QVQLVESGGGVAQPGRSLSLSCAASGFTFSDYGMHWVRQAPGKGLEWVAVIWYAGSNKYYADSVKDRFTISRDNSKNTLYLQMRSLRVEDTAVYYCARGGELRLDYYSGLDVWGQGTTVTVSS VL: DIQMTQSPSSLSASVGDRVTVTCRASQGIRSDLGWYQQKPGKAPKRLIYAASSFQSGVPSRFSGSGSGTEFTLTISSLHPEDFATYYCLQSNNYPWTFGQGTKVEIK |
| 30% | 80% | 1.3 nM | 0.7 nM | 24.5 nM | 0.00723 s⁻¹ | 296000 M⁻¹ s⁻¹ | 1.6 min | 0.0968 nM | 0.00011 s⁻¹ | 1.14e+06 M⁻¹ s⁻¹ | 105 min | 2.45 nM | 0.00127 s⁻¹ | 517000 M⁻¹ s⁻¹ | 9.1 min | 6470 RLU | 0.43 nM | H1H14495P (antibody, human IgG1, V domains shown, human IgG1 (H1H)) VH: QVQLVESGGGAVQPGTSLRLSCAASGFTFSSFGMHWVRQAPGKGLEWVSVIWYEGSNKYYADSVKGRFTISRDNSRNTLSLQMDSLRVEDTAVYYCARGGELGVNYYYDMDVWGQGTTVTVSS VL: DIQMTQSPSSLSASVGDRVTITCRASQDIKNDLGWFQQKAGKAPKRLFYATSSLQSGVPSRFSGSGSGTEFTLTISSLQPEDFATYYCLQVHSYPRTFGQGTKVEIK |
| 60% | 90% | 2 nM | 0.6 nM | 75.3 nM | 0.00889 s⁻¹ | 118000 M⁻¹ s⁻¹ | 1.3 min | 0.201 nM | 0.000169 s⁻¹ | 842000 M⁻¹ s⁻¹ | 68.3 min | 5.06 nM | 0.00162 s⁻¹ | 319000 M⁻¹ s⁻¹ | 7.2 min | 6840 RLU | 0.4 nM | H1H14491P (antibody, human IgG1, V domains shown, human IgG1 (H1H)) VH: QVQLVESGGGVVQPGRSLRLSCVASGFTFSDYGMHWVRQAPGKGLEWVAVIWYEGSNKYYADSVTGRFTISRDNSKNTLFLQMNSLKAEDTAEYYCAKDGGQLAYQYYYGMDVWGQGTTVTVSS VL: AIQMTQSPSSLSASVGDRVTLTCRASQGIRNDLGWYQQKPGKAPKSLIYAASNLQSGVPSRFSGSGSGTDFTLTISSLQPEDSATYYCLQDYNYPRTFGQGTKVEIK |
| – | – | – | – | 2.55 nM | 0.000611 s⁻¹ | 240000 M⁻¹ s⁻¹ | 18.9 min | 0.63 nM | 0.000185 s⁻¹ | 293000 M⁻¹ s⁻¹ | 62.6 min | 5.06 nM | 0.00138 s⁻¹ | 272000 M⁻¹ s⁻¹ | 8.4 min | 4200 RLU | 85 nM | H4H14530P (antibody, human IgG4, V domains shown, human IgG4 (H4H)) VH: QLQLQESGPGLVKPSETLSLTCTVSGGSISSTNHYWGWIRQPPGKGLEWIGNVYYIGNAYYNPSLKTGVTFSVDTSKNQFSLNLRSVTAADTAMYYCARLSNWNFLDLWGQGTLVTVSS VL: EIVMTQSPATLSVSPGERATLSCRASQSISSNLAWYQQKPGQAPRLLIYGASTRATGIPARFSGSGSGTEFTLTISSLQSEDFAVYYCQQFNNWLSFGGGTKVEIK |
